This is an account of results in patent US20240294914A1, “COMPOSITIONS AND METHODS FOR TREATING HEPATITIS B VIRUS INFECTION” (priority 2021, published 2024).

The subject of this series is HBV genome in HEK293T cells transduced with a lentiviral vector. Nature of the series: Base editing efficiency in Hek293-lentiHBV system (PCR amplicons sequenced on MiSeq). It is filed as cell-based, Hepatitis B virus. Set-up: Editing Efficiency 2 (%): concentration or dose not given beside the values. Particulars: for Average Editing Efficiency (%): average of 3, base editor Cas12b-ABE; for Average Editing Efficiency (%) / Editing Efficiency 1 (%) / Editing Efficiency 2 (%) / Editing Efficiency 3 (%): plasmid transfection, four days; for Editing Efficiency 1 (%): replicate 1, base editor Cas12b-ABE; for Editing Efficiency 2 (%): replicate 2, base editor Cas12b-ABE; for Editing Efficiency 3 (%): replicate 3, base editor Cas12b-ABE.

Strand notation (5' to 3'): a small letter for the sugar, then the base; units joined by * are phosphorothioate-linked, units joined directly phosphodiester-linked; [ ] holds rarer units or linkages, { } end groups; capitals alone tell only the bases. m = 2'-O-methyl; r = 2'-OH (RNA)

B1: G-251: guide RNA SEQ ID NO: 5504 (nucleic acid)
guide: CAGGUAUUGUUUACACAGAAGUUUUAGAGCUAGAAAUAGCAAGUUAAAAUAAGGCUAGUCCGUUAUCAACUUGAAAAAGUGGCACCGAGUCGGUGCUUUU
modifications: sugars from the 5' end m3 r93 m3 r1, linkages s3 o93 s3 (s phosphorothioate, o phosphodiester), T or U not given here
For B1, the “% Editing average” value (base editor Abe7.10) was determined as 77%.

B2: cas12b-42: guide RNA SEQ ID NO: 384 (nucleic acid)
guide: mG*mU*mU*rCrUrGrUrCrUrUrUrUrGrGrUrCrArGrGrArCrArArCrCrGrUrCrUrArGrCrUrArUrArArGrUrGrCrUrGrCrArGrGrGrUrGrUrGrArGrArArArCrUrCrCrUrArUrUrGrCrUrGrGrArCrGrArUrGrUrCrUrCrUrUrArCrGrArGrGrCrArUrUrArGrCrArCrGrGrArGrCrUrArCrUrGrUrGrGrArGrUrUrArCrU
On to B2, for which the “Average Editing Efficiency (%)” value stood at 28.99%, the “Editing Efficiency 1 (%)” value was 29.48%, the “Editing Efficiency 2 (%)” value worked out at 23.94% and the “Editing Efficiency 3 (%)” value is given as 33.54%.

B3: G-159: guide RNA SEQ ID NO: 5488 (nucleic acid)
guide: GCAAACACUUGGCACAGACCGUUUUAGAGCUAGAAAUAGCAAGUUAAAAUAAGGCUAGUCCGUUAUCAACUUGAAAAAGUGGCACCGAGUCGGUGCUUUU
modifications: sugars from the 5' end m3 r93 m3 r1, linkages s3 o93 s3 (s phosphorothioate, o phosphodiester), T or U not given here
As to B3, the “% Editing average” value (base editor Abe7.10) was 51%.

B4: G-845: guide RNA SEQ ID NO: 5508 (nucleic acid)
guide: UUUGAAGUAUGCCUCAAGGUGUUUUAGAGCUAGAAAUAGCAAGUUAAAAUAAGGCUAGUCCGUUAUCAACUUGAAAAAGUGGCACCGAGUCGGUGCUUUU
modifications: sugars from the 5' end m3 r93 m3 r1, linkages s3 o93 s3 (s phosphorothioate, o phosphodiester), T or U not given here
For B4, the “% Editing average” value (base editor Abe7.10) was found to be 70%.

B5: G-200: guide RNA SEQ ID NO: 5498 (nucleic acid)
guide: GUGAAAAAGUUGCAUGGUGCGUUUUAGAGCUAGAAAUAGCAAGUUAAAAUAAGGCUAGUCCGUUAUCAACUUGAAAAAGUGGCACCGAGUCGGUGCUUUU
modifications: sugars from the 5' end m3 r93 m3 r1, linkages s3 o93 s3 (s phosphorothioate, o phosphodiester), T or U not given here
As for B5, the “% Editing average” value (base editor ABE8.8-m) was found to be 59%.

B6: G-474: guide RNA SEQ ID NO: 5509 (nucleic acid)
guide: GAUUAAAGGUCUUUGUACUAGUUUUAGAGCUAGAAAUAGCAAGUUAAAAUAAGGCUAGUCCGUUAUCAACUUGAAAAAGUGGCACCGAGUCGGUGCUUUU
modifications: sugars from the 5' end m3 r93 m3 r1, linkages s3 o93 s3 (s phosphorothioate, o phosphodiester), T or U not given here
B6: the “% Editing average” value (base editor VRQR-ABE) was 74%.

B7: cas12b-127: guide RNA SEQ ID NO: 390 (nucleic acid)
guide: mG*mU*mU*rCrUrGrUrCrUrUrUrUrGrGrUrCrArGrGrArCrArArCrCrGrUrCrUrArGrCrUrArUrArArGrUrGrCrUrGrCrArGrGrGrUrGrUrGrArGrArArArCrUrCrCrUrArUrUrGrCrUrGrGrArCrGrArUrGrUrCrUrCrUrUrArCrGrArGrGrCrArUrUrArGrCrArCrArCrArCrArGrArArArGrGrCrCrUrUrGrUrArArG
Turning to B7, the “Average Editing Efficiency (%)” value was 42.25%, the “Editing Efficiency 1 (%)” value came out at 50.16%, the “Editing Efficiency 2 (%)” value was determined as 37.40% and the “Editing Efficiency 3 (%)” value was 39.21%.

B8: cas12b-147: guide RNA SEQ ID NO: 386 (nucleic acid)
guide: mG*mU*mU*rCrUrGrUrCrUrUrUrUrGrGrUrCrArGrGrArCrArArCrCrGrUrCrUrArGrCrUrArUrArArGrUrGrCrUrGrCrArGrGrGrUrGrUrGrArGrArArArCrUrCrCrUrArUrUrGrCrUrGrGrArCrGrArUrGrUrCrUrCrUrUrArCrGrArGrGrCrArUrUrArGrCrArCrGrArGrGrArCrArArArCrGrGrGrCrArArCrArUrA
For the molecule B8, the “Average Editing Efficiency (%)” value came to 10.83%, the “Editing Efficiency 1 (%)” value was found to be 13.02%, the “Editing Efficiency 2 (%)” value was found to be 4.44% and the “Editing Efficiency 3 (%)” value came to 15.03%.

B9: cas12b-122b: guide RNA SEQ ID NO: 391 (nucleic acid)
guide: GTTCTGTCTTTTGGTCAGGACAACCGTCTAGCTATAAGTGCTGCAGGGTGTGAGAAACTCCTATTGCTGGACGATGTCTCTTACGAGGCATTAGCACCACGCACGCGCTGATGGCCC
modifications: sugars from the 5' end m3 r114, linkages s3 o113 (s phosphorothioate, o phosphodiester), T or U not given here
As for B9, the “Average Editing Efficiency (%)” value is given as 5.51%, the “Editing Efficiency 1 (%)” value was determined as 8.22%, the “Editing Efficiency 2 (%)” value is listed as 3.91% and the “Editing Efficiency 3 (%)” value was found to be 4.39%.

B10: cas12b-17: guide RNA SEQ ID NO: 382 (nucleic acid)
guide: mG*mU*mU*rCrUrGrUrCrUrUrUrUrGrGrUrCrArGrGrArCrArArCrCrGrUrCrUrArGrCrUrArUrArArGrUrGrCrUrGrCrArGrGrGrUrGrUrGrArGrArArArCrUrCrCrUrArUrUrGrCrUrGrGrArCrGrArUrGrUrCrUrCrUrUrArCrGrArGrGrCrArUrUrArGrCrArCrGrGrGrGrCrCrArArGrUrCrUrGrUrArCrArGrCrA
Turning to B10, the “Average Editing Efficiency (%)” value is on record as 35.07%, the “Editing Efficiency 1 (%)” value is reported as 26.42%, the “Editing Efficiency 2 (%)” value is reported as 34.50% and the “Editing Efficiency 3 (%)” value came to 44.29%.

B11: G-772: guide RNA SEQ ID NO: 5501 (nucleic acid)
guide: UGGCGAUUGGUGGAGGCAGGGUUUUAGAGCUAGAAAUAGCAAGUUAAAAUAAGGCUAGUCCGUUAUCAACUUGAAAAAGUGGCACCGAGUCGGUGCUUUU
modifications: sugars from the 5' end m3 r93 m3 r1, linkages s3 o93 s3 (s phosphorothioate, o phosphodiester), T or U not given here
B11: the “% Editing average” value (base editor Abe7.10) came to 66%.

B12: cas12b-35: guide RNA SEQ ID NO: 388 (nucleic acid)
guide: mG*mU*mU*rCrUrGrUrCrUrUrUrUrGrGrUrCrArGrGrArCrArArCrCrGrUrCrUrArGrCrUrArUrArArGrUrGrCrUrGrCrArGrGrGrUrGrUrGrArGrArArArCrUrCrCrUrArUrUrGrCrUrGrGrArCrGrArUrGrUrCrUrCrUrUrArCrGrArGrGrCrArUrUrArGrCrArCrCrCrCrArArGrGrUrCrUrUrArCrArUrArArGrArG
On to B12, for which the “Average Editing Efficiency (%)” value was determined as 0.35%, the “Editing Efficiency 1 (%)” value is on record as 0.31%, the “Editing Efficiency 2 (%)” value was 0.04% and the “Editing Efficiency 3 (%)” value is recorded as 0.70%.

B13: cas12b-30: guide RNA SEQ ID NO: 383 (nucleic acid)
guide: mG*mU*mU*rCrUrGrUrCrUrUrUrUrGrGrUrCrArGrGrArCrArArCrCrGrUrCrUrArGrCrUrArUrArArGrUrGrCrUrGrCrArGrGrGrUrGrUrGrArGrArArArCrUrCrCrUrArUrUrGrCrUrGrGrArCrGrArUrGrUrCrUrCrUrUrArCrGrArGrGrCrArUrUrArGrCrArCrGrCrUrGrArCrGrCrArArCrCrCrCrCrArCrUrGrG
B13: the “Average Editing Efficiency (%)” value was 0.02%, the “Editing Efficiency 1 (%)” value came to 0.02%, the “Editing Efficiency 2 (%)” value is 0.02% and the “Editing Efficiency 3 (%)” value amounted to 0.01%.

B14: cas12b-100: guide RNA SEQ ID NO: 385 (nucleic acid)
guide: mG*mU*mU*rCrUrGrUrCrUrUrUrUrGrGrUrCrArGrGrArCrArArCrCrGrUrCrUrArGrCrUrArUrArArGrUrGrCrUrGrCrArGrGrGrUrGrUrGrArGrArArArCrUrCrCrUrArUrUrGrCrUrGrGrArCrGrArUrGrUrCrUrCrUrUrArCrGrArGrGrCrArUrUrArGrCrArCrUrUrCrUrUrCrUrArGrGrGrGrArCrCrUrGrCrCrU
Consider B14, for which the “Average Editing Efficiency (%)” value came out at 5.18%, the “Editing Efficiency 1 (%)” value is recorded as 7.97%, the “Editing Efficiency 2 (%)” value was 4.21% and the “Editing Efficiency 3 (%)” value was found to be 3.35%.

B15: cas12b-154: guide RNA SEQ ID NO: 387 (nucleic acid)
guide: mG*mU*mU*rCrUrGrUrCrUrUrUrUrGrGrUrCrArGrGrArCrArArCrCrGrUrCrUrArGrCrUrArUrArArGrUrGrCrUrGrCrArGrGrGrUrGrUrGrArGrArArArCrUrCrCrUrArUrUrGrCrUrGrGrArCrGrArUrGrUrCrUrCrUrUrArCrGrArGrGrCrArUrUrArGrCrArCrUrUrGrUrCrArArCrArArGrArArArArArCrCrCrC
In the case of B15, the “Average Editing Efficiency (%)” value stood at 27.74%, the “Editing Efficiency 1 (%)” value is 16.12%, the “Editing Efficiency 2 (%)” value worked out at 30.06% and the “Editing Efficiency 3 (%)” value stood at 37.02%.

B16: cas12b-124: guide RNA SEQ ID NO: 389 (nucleic acid)
guide: mG*mU*mU*rCrUrGrUrCrUrUrUrUrGrGrUrCrArGrGrArCrArArCrCrGrUrCrUrArGrCrUrArUrArArGrUrGrCrUrGrCrArGrGrGrUrGrUrGrArGrArArArCrUrCrCrUrArUrUrGrCrUrGrGrArCrGrArUrGrUrCrUrCrUrUrArCrGrArGrGrCrArUrUrArGrCrArCrCrCrGrGrGrCrArArCrGrGrGrGrUrArArArGrGrU
Consider B16, for which the “Average Editing Efficiency (%)” value is given as 17.47%, the “Editing Efficiency 1 (%)” value turned out to be 29.50%, the “Editing Efficiency 2 (%)” value amounted to 11.78% and the “Editing Efficiency 3 (%)” value stood at 11.15%.

B17: G-553: guide RNA SEQ ID NO: 5506 (nucleic acid)
guide: GGGCAACGGGGUAAAGGUUCGUUUUAGAGCUAGAAAUAGCAAGUUAAAAUAAGGCUAGUCCGUUAUCAACUUGAAAAAGUGGCACCGAGUCGGUGCUUUU
modifications: sugars from the 5' end m3 r93 m3 r1, linkages s3 o93 s3 (s phosphorothioate, o phosphodiester), T or U not given here
As to B17, the “% Editing average” value (base editor ABE8.8-m) was 64%.
